Data reported in IntAct's records for PubMed 12925767.

B1: DASH complex subunit DAM1 (Saccharomyces cerevisiae), P53267 (parent)
chain: MSEDKAKLGTTRSATEYRLSIGSAPTSRRSSMGESSSLMKFADQEGLTSSVGEYNENTIQQLLLPKIRELSDSIITLDSNFTRLNFIHESLADLNESLGSLLYGIMSNSWCVEFSQAPHDIQDDLIAIKQLKSLEDEKNNLVMELSNMERGIKRKKDEQGENDLAKASQNKQFNQPLFPSSQVRKYRSYDNRDKRKPSKIGNNLQVENEEDYEDDTSSEASFVLNPTNIGMSKSSQGHVTKTTRLNNNTNSKLRRKSILHTIRNSIASGADLPIENDNVVNLGDLHPNNRISLGSGAARVVNGPVTKNRNSMFSGRAERKPTESRHSVAKKTEKKINTRPPFR

Variants of: B1
Conditions: with nup82_yeast NUP82, P40368
Sequence of nup82_yeast NUP82, P40368 (P40368 whole entry): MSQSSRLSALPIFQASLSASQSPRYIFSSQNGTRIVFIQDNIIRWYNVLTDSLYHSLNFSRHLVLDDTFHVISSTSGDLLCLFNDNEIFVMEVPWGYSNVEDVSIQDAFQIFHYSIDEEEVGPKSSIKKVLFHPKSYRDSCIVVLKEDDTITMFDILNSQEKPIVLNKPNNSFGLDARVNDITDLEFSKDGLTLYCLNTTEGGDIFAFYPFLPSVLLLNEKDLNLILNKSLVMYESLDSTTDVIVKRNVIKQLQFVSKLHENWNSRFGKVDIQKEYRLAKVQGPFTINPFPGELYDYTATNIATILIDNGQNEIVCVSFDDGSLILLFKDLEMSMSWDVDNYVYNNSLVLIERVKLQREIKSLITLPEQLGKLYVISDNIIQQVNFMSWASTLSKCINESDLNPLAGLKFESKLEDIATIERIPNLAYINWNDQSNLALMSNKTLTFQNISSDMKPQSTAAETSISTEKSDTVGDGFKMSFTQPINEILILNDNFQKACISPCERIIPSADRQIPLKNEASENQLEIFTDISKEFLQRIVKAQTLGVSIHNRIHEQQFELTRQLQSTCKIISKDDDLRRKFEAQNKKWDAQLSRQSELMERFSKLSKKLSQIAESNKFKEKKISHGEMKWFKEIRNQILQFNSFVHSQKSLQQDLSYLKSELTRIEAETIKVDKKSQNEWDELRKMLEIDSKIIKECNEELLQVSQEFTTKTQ

| effect of a mutation on the interaction | Variant |
| --- | --- |
| causing an interaction | S20A;S257A;S265A;S292A |

Variants of: B1
Conditions: with bmh1_yeast BMH1, P29311
Sequence of bmh1_yeast BMH1, P29311 (P29311 whole entry): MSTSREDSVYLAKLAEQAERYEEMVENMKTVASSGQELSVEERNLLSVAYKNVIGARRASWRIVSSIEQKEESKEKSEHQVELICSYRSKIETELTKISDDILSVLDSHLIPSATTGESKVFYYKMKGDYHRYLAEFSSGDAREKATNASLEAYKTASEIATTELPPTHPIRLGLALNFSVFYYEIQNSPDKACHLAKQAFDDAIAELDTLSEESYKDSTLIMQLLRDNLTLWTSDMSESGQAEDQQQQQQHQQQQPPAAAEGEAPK

| effect of a mutation on the interaction | Variant |
| --- | --- |
| causing an interaction | S20A;S257A;S265A;S292A |

Variants of: B1
Conditions: with med21_yeast SRB7, P47822
Sequence of med21_yeast SRB7, P47822 (P47822 whole entry): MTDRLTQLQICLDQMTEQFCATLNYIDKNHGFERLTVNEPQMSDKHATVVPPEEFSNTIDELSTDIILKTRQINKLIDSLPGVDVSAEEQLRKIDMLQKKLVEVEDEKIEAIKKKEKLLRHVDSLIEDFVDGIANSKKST

| effect of a mutation on the interaction | Variant |
| --- | --- |
| causing an interaction | S20D;S257D;S265D;S292D |
